According to the DeepSol protein solubility set:

Assay: soluble on expression in E. coli; label from the status in PepcDB or PDB records

Row | Sequence | soluble on expression in E. coli
1 | MGSDKIHHHHHHMSETEDSIVGIKDKELKMIRKILNRYEMKLVDIKKIRSIYKIKTENSTVCLKKVSHEFKKVENGNYLVRELKKNNFNNIADYISTKDGKLIVFYKNLAFYLTEWVDGEECNLNDINEAINASKLLAKFHLATQNINFHKIKLKNNNSKNWVEIFAKCLRDMESFKSIIQNKRIKNKFDFMYEDLIESYYNRGLFSIKILNESSYFKIIKGSNNKKTVCHNSFYYQNIIKGKKDYYIIHLNSIIIDLPITDLCKMIRTLMTKKEYMWNFEKAKQIIQAYNSVNKLSKDEMEVMLALIAFPHKFWKLGKKRYVRHKNWSENKYINKLNKIVLNNKCEQSFIEEYISYLDDIKEFTNFN | not soluble
2 | AVANILNRDYNRAQEILNGIKNPDATTYYLMAVVAARTNNLDVVINSLRESISLDSSMMKKAATDLEFAKYANDGGFKSLLRH | not soluble
3 | MQLYYLGPKGTFSYLACRQYFSENEATFQPKSNLFEVIKAVADDDTSIGVVPIENSIEGTINIVADALAQQDVFAHGEIRLDINFALYGNGTDSISDIKKVYSIAPAISQTTNYIHQHQFDYDYVDSTIQSLTKIENGVAAIAPLGSGEAYGFTPIDTHIEDYPHNVTRFLVIKNQQQFDQNATSLMFLITPMHDKPGLLASVLNTFALFNINLSWIESRPLKTQLGMYRFFVQADSAITTDIKKVIAILETLDFKVEMIGAFN | soluble
4 | MSELQNPKPSSLSRDAFIATYADIYEHSPWVAEQAFNQDAGPELDQLDTLHARLSDILLNATHAQQLALINAHPDLAGKAAVKGELTQASTDEQAGAGIHLCTPDEFQRFTELNGAYKARFGFPFIMAVKGSDRHKILAAFEQRIHHSPEAEFACALAEINKIALFRLQALHASQAAAALEHHHHHH | soluble
5 | SSFKREGDDWSQLNVLKKRRVGDLLASYIPEDEALMLRDGRFACAICPHRPVLDTLAMLTAHRAGKKHLSSLKLFYGKKQTGKGTEQNPRQQNELKTESKTEAPLLTQTRIITQNALHRAPHYNSCCRRKHRPEAPAPSVSSPPLPTAEVQLQSAEISKEPEPRERSDAKESAALLASAPMSPTKRRVLNHYLTLRSSGWVPDGRGRWIKDENVEFDSDEEEPPDLPLD | soluble
6 | IDKKLTTLADLFRPPIDLMHKGSFETAKECGQMQNKWLMINIQNVQDFACQCLNRDVWSNEAVKNIIREHFIFWQVYHDSEEGQRYIQFYKLGDFPYVSILDPRTGQKLVEWHQLDVSSFLDQVTGFLGEHGQLDGLSSS | soluble
7 | LMPTERIDINEREDCTASEMTAPTVPVALVTGAAKRLGRSIAEGLHAEGYAVCLHYHRSAAEANALSATLNARRPNSAITVQADLSNVATAPVSGADGSAPVTLFTRCAELVAACYTHWGRCDVLVNNASSFYPTPLLRNDEDGHEPCVGDREAMETATADLFGSNAIAPYFLIKAFAHRVAGTPAKHRGTNYSIINMVDAMTNQPLLGYTIYTMAKGALEGLTRSAALELAPLQIRVNGVGPGLSVLVDDMPPAVWEGHRSKVPLYQRDSSAAEVSDVVIFLCSSKAKYITGTCVKVDGGYSLTRA | soluble
8 | MGSDKIHHHHHHMTIDPIKSTTLAQFDAAEQTALAQLALKVQHAFVTGAGGFLGKAICLRLLAAGIKVTGFARGHYPELEALGVVMLQGDLVNKDQLQQAMQGCDIVFHVASKAGVWGDRDSYFCPNVKGAANVIAACKTLKINKLVYTSTPSVTFAGQDESGIDESTPYATSFLNYYAHSKAIAEKMMLDANQVGDVSVENTAVTQVTQVTQATTATISDNNLATTQVAIPNTSQVTAPYALKTVALRPHLIWGPGDPHLVPRVLARCRLDKLKLVGHEDKLVDTIYIDNAAYAHVLAALELCQAKPKCQGKAYFLSNDEPITMAKMLNLILACDALPPVTKRVPQSVAYVAGAVLETVYFLLKKQEEPMMTRFVARQLSCSHYFDISAAKRDLGYRALVSINEGMARLKASL | not soluble
9 | MAHHHHHHMPENDEHVVVQACSVRVALPASTQPCGVEDAVQHCLHAARAIVQINLVRGTPRVALQLLACRTDACGEQHTASQVLDESPRRLQYALLLRGFEQRGGPVNRLDHTSLACAMCVPNYFSPHHFGAAAVPFFRTYHVTEALAKRRYADAAVMMACLEVETVAEASTEVPPWLARALQLLCRGEDREGVWQAWWIHEVPAATQRRMVCAKSDLVWNVVASHRLQELVAATGGCRDVLLAAAPKPGDFVFQLEEAEDSGATSAALAPVALSAPVTAVYSQAQAARYSVHDIALPLVLDASSEFEGCESLAVIEAQLGFTHDRRRHLSLHPSQRPCQSHTSLPAVAQTNETVFRPLLVEATGYPRATRPWCRSFPEPSVGPAFDRPKAALESNATVFALATDWDLASQTAVARDYAAKSRGPRACVWPLSKRGRALTDRLPAGLMTVASADGSSLLGGASTTNYHGSRCLAIHCTLPARVSLANFVSELAAVEDLRDSQA | not soluble
10 | MGSDKIHHHHHHMNRAREINYLNSIALHQPFGIVGVSGETGIGKTTVLNFVNPEGVFTVRVNISLRDSMESILYDLLHSLALSLEKVEEVSDLAKEVRKWITDEVSTIKGFSLGVSFGVNASLTHEKSIRPRFNFFKAREKLGELIKQTVQRKGKFLLIIDELDKEKKEDVLRVIDSIKNFIIMEDFVVILSLPFSIYREYAADRLRWNEAGNLENIFTDIVFVEPLKKLEIKELIIKRLGSYIELIEDGVLDIVADFSDGNPRDGLWILTKAIYDNIHKELLSKEDLINTINRTISEYTGLTLNLTENQKKAIRVLRGSVYSREKIIETLQKEGFKRTTAYSVMDQLLQKRILLVEKEGYRISGKFSYMEI | not soluble
11 | MKIVKDFSPKEYSQKLVNWLSDSCMNYPAEGFVIGLSGGIDSAVAASLAVKTGLPTTALILPSDNNQHQDMQDALELIEMLNIEHYTISIQPAYEAFLASTQSFTNLQNNRQLVIKGNAQARLRMMYLYAYAQQYNRIVIGTDNACEWYMGYFTKFGDGAADILPLVNLKKSQVFELGKYLDVPKNILDKAPSAGLWQGQTDEDEMGVTYQEIDDFLDGKQVSAKALERINFWHNRSHHKRKLALTPNF | soluble
12 | MSLELKVHETILEVNLGAMVANLNHYRSMLKPETKMVCMVKASAYGAGSYEIAKTLQEHHADYLAVAVADEGSDLRKAGITASIIIMDPELTAFKTMFDYKLEPEVYNFHLLDALIKAAEKEGITNFPIHVKLDTGMHRLGFEEKDIPQLIRRLKNQNALIPRSVFSHFVGSDSAQFDAFTRQQIERYEKMSKELQDAFPHKILRHICNTAGIERFPGAQFDMVRLGIGLYGISPIDNSIINNVSTLKTTILQIRDVAEEDTVGYSRKGHLIRPSRIAAIPIGYADGLNRHLGCGHGYCLVNGKKAPYVGNICMDVCMIDVTDIDCREGDQAIIFGDELPITALSDALETIPYEVLTGISTRVKRVYYQDEGHHHHHH | soluble
13 | MYRIIEAPNSGKYPFSHSLLIGKSCIIDTGSGEALAPLRVDCVLNTHWHEDHIAMNSIGRKVLAHPLDAEAIESYEEFRRRYGIGDSVRLFINFEFGQVDDVFEDGEQLEFEGVSVEVIHTPGHSAGHCCFVINNEAVFLGDIDLTSFGPWYGCLDCDVDDFVRSVKKMMREVERRDIEIAIPSHGRPVYGKEEIIGAMREYLKKIFERDKAIRELVRLGVDPVGKGIIYRKIPEPREIYLHFEKIMVEKHLTTSLDEFCLDLEHHHHHH | not soluble
14 | MGHHHHHHSHMWSSREIEDLGLTFAIAIDKGKETNTEKELKEEGGSYPKKDNITLTYQFVNEKAAGAGTSGGGGSGQGAQKAYINISETGDSLQQIGSEVALRRDREVFSPHLKVVVMSEDVLHTFPIDEMLDQFFRDNEIRLSCLVLSAKGEARDALQLKENGEIPAFRLIGLGENEHKVSRILPPMTLAKLIGKLHSGSSFLLQNVVAANGAVKYSGAAVINGKSKKMIGTLNEYETEGITWIRGEGKGGVVKSHDKKSQQTLAYDINKIKSRIQPIVKGKDISFHVDIESEGDLVENWNTKEALDTQFIDRLETTIENEVKKIVGQVLKKIQHDYKADVAGFDESFRLTYPHLWKRVKNNWDDTFSKADITYSVNVTITHFGTVKTQ | soluble
15 | MGSDKIHHHHHHMSEIEAQLPVIHFADAKTFETWIAEQGSDCKGLWVKFAKKASGIASITPREALDVALCYGWIDGQRIGSDSDFYLNKYTPRRARSRWSQVNCARATELIAEGRMTPRGLAEVERARTDGRWDAAAPPPSKATVPDDLHDALAQNAAAKMLFDELDSRNRYAILFRIHDAKKSETRAARIEKYVGMLARGETPYPRRKAR | not soluble
16 | MSELFSERIPPQSIEAEQAVLGAVFLDPAALVPASEILIPEDFYRAAHQKIFHAMLRVADRGEPVDLVTVTAELAASEQLEEIGGVSYLSELADAVPTAANVEYYARIVEEKSVLRRLIRTATSIAQDGYTREDEIDVLLDEADRKIMEVSQRKHSGAFKNIKDILVQTYDNIEMLHNRDGEITGIPTGFTELDRMTSGFQRSDLIIVAARPSVGKTAFALNIAQNVATKTNENVAIFSLEMSAQQLVMRMLCAEGNINAQNLRTGKLTPEDWGKLTMAMGSLSNAGIYIDDTPSIRVSDIRAKCRRLKQESGLGMIVIDYLQLIQGSGRSKENRQQEVSEISRSLKALARELEVPVIALSQLSRSVEQRQDKRPMMSDIRESGSIEQDADIVAFLYRDDYYNKDSENKNIIEIIIAKQRNGPVGTVQLAFIKEYNKFVNLERRFDEAQIPPGA | soluble
17 | SADHDLFRETVYAESLDEALERYSVDTVGDSELATLLPHIEKTFGFPTWAQINEALDTYPDREFVNTVTELLSTANPESLVAAVELMVASARSTTLREELDHEVVLGEYIRSRPNFAEGVRAVLVDKDRNADFTPATTGEVDVTPMRKLLKN | not soluble
18 | MGSDKIHHHHHHMTTILHAMLGKGLGGLEQVFLDYQPILEAWAARRGGRCVGVVRKGGKMAVAQANRTPPLSAMPALTDWDPITVGAARALVKTYRPALIFSHGQRPARVFDKAAPADVVRAVCLHKPSFDVTPGTHYVCVGQHLAALAIERGAPADHVWLVPNAVKPPGVEAQPFAEAGRPIRIVAAGRLHPKKGFDVLIHAVGKLRAWDYEVTCEIAGEGDERGALEGLIRDLDLEASVTLKGWTGDVAGFLATGDLFAFPSHQEGFPLTLLEAMAVGLPVVASEIDGPLEILTDGRDGRLVPDNDPDRLAEALAELISDRETAVRLGAAARQQVLTEYSPQELARRLEAALDGMTSRA | not soluble
19 | MSSSHKSWNSIYEFTVKDINGVDVSLEKYRGHVCLIVNVACKCGATDKNYRQLQEMHTRLVGKGLRILAFPCNQFGGQEPWAEAEIKKFVTEKYGVQFDMFSKIKVNGSDADDLYKFLKSRQHGTLTNNIKWNFSKFLVDRQGQPVKRYSPTTAPYDIEGDIMELLEKK | soluble
20 | MGSDKIHHHHHHMTTLGIDHPLVCVRDLAAKRATYQSLGFLMKPPGMHPWGTSTALVIFRNQLLELVSIEDESLLDGYAAGSFRFGRHVEAWLAEREGVCLSALNSMDAEADEAAVLARGGSCAGTVEFGRDVVRDDGTPDRTKTTLKIFPHAGLPRLSMFACQQHRRDLIEFPDWMDHPNGAHGFASATILAAPSDQGRVRDWLSVLHGADAVRDTDWGFEVATTNGRWRVVSRATAPALLGKLPDGLASDGAPSVISLDIRCHALSQLRPFVEAGEFVCQDVNGALVLTEVARLGGILLSFHEIPKV | not soluble
21 | MHHHHHHSSGVDLGTENLYFQSNAMKKEIASHLLEIGAVFLQPNDPFTWSSGMKSPIYCDNRLTLSYPKVRQTIAAGLEELIKEHFPTVEVIAGTATAGIAHAAWVSDRMDLPMCYVRSKAKGHGKGNQIEGKAEKGQKVVVVEDLISTGGSAITCVEALREAGCEVLGIVSIFTYELEAGKEKLEAANVASYSLSDYSALTEVAAEKGIIGQAETKKLQEWRKNPADEAWITA | soluble
22 | MSLVIGYMESNKNNSKWKDILMDGEILQIENIFNGSHNKKNNGLIIFKIKDKLGNVNKLTFVSKSADMSIQVEKAERLIKKGSYYRHFKGNYYKVLYIAENSEDKEKVVVYQAMYGEKKVYVRPFKMFISKVDHCKYPEIEQEYRFMSISELENQFGTSVVASWNMQNIYVDHTIEGHHHHHH | not soluble
